Six molecules from US20260001928A1 (CORTERIA PHARMACEUTICALS, priority 2022, published 2026) can be followed below.

*1 amine or outer side, *2 acyl side, *3 side chain or, on linkers, in order; H or OH if unused. Where no end group is shown, it is not given here. Side-chain parts run from the residue outwards. [ ]: non-standard residue; d: D form. The star is where a group is joined. C18 diacid = O=C(O)CCCCCCCCCCCCCCCCC(=O)*; C16 diacid = O=C(O)CCCCCCCCCCCCCCC(=O)*; γGlu = O=C(O)[C@H](CCC(=O)[*:2])N[*:1]; NMeI = CC[C@H](C)[C@H](NC)C(=O)O; Pentanoyl = CCCCC(=O)*; AEEA = NCCOCCOCC(=O)O; Aib = CC(C)(N)C(=O)O

One experiment concerns the target T1, CRF1R receptor (UniProt P34998 24-415, limits assumed).
T1 sequence (looked up): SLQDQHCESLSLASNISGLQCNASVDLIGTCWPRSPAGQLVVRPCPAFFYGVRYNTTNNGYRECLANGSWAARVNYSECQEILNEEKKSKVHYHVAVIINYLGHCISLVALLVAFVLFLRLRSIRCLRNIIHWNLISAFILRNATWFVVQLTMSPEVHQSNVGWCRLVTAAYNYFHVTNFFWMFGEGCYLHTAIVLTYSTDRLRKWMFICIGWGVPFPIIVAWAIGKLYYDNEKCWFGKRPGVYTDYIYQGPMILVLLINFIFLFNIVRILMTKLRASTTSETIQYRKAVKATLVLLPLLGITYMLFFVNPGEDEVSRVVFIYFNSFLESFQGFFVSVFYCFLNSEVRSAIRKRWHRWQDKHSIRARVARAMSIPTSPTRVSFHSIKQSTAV
Nature of the experiment: cell-based or functional assay.

Experiment [1] addresses human corticotropin-releasing factor 2a (CRF2a receptor) (human), Q13324. The experiment in a line: cell-based or functional assay.

human corticotropin-releasing factor 2a (CRF2a receptor) (human), Q13324, sequence (Q13324 20-411): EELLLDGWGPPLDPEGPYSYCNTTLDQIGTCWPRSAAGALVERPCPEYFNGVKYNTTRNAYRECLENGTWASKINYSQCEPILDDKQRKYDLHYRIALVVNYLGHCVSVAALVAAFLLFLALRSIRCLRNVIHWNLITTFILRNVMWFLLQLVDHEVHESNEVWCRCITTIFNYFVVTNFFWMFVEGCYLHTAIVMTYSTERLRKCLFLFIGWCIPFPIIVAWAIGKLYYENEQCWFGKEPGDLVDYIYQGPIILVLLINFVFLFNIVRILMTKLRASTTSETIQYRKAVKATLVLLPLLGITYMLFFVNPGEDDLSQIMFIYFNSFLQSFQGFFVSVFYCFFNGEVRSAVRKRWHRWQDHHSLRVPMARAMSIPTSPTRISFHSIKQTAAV

B1: SEQ ID NO 120 (peptide)
peptide: Pentanoyl-VLSLD[dV]PIKLK([AEEA-AEEA-γGlu-C18 diacid])KILLEQEKQKKQREQAETN[Aib]QILAQV-NH2
SMILES: CCCCC(=O)N[C@H](C(=O)N[C@@H](CC(C)C)C(=O)N[C@@H](CO)C(=O)N[C@@H](CC(C)C)C(=O)N[C@@H](CC(=O)O)C(=O)N[C@@H](C(=O)N1CCC[C@H]1C(=O)N[C@H](C(=O)N[C@@H](CCCCN)C(=O)N[C@@H](CC(C)C)C(=O)N[C@@H](CCCCNC(=O)COCCOCCNC(=O)COCCOCCNC(=O)CC[C@H](NC(=O)CCCCCCCCCCCCCCCCC(=O)O)C(=O)O)C(=O)N[C@@H](CCCCN)C(=O)N[C@H](C(=O)N[C@@H](CC(C)C)C(=O)N[C@@H](CC(C)C)C(=O)N[C@@H](CCC(=O)O)C(=O)N[C@@H](CCC(N)=O)C(=O)N[C@@H](CCC(=O)O)C(=O)N[C@@H](CCCCN)C(=O)N[C@@H](CCC(N)=O)C(=O)N[C@@H](CCCCN)C(=O)N[C@@H](CCCCN)C(=O)N[C@@H](CCC(N)=O)C(=O)N[C@@H](CCCNC(=N)N)C(=O)N[C@@H](CCC(=O)O)C(=O)N[C@@H](CCC(N)=O)C(=O)N[C@@H](C)C(=O)N[C@@H](CCC(=O)O)C(=O)N[C@H](C(=O)N[C@@H](CC(N)=O)C(=O)NC(C)(C)C(=O)N[C@@H](CCC(N)=O)C(=O)N[C@H](C(=O)N[C@@H](CC(C)C)C(=O)N[C@@H](C)C(=O)N[C@@H](CCC(N)=O)C(=O)N[C@H](C(N)=O)C(C)C)[C@@H](C)CC)[C@@H](C)O)[C@@H](C)CC)[C@@H](C)CC)C(C)C)C(C)C
Consider B1, for which the “Emax (% I)” value in the experiment with CRF1R receptor came out at 3%. This molecule had an EC50 [nM] (cAMP) in experiment [1] of 1.33 nM.

B2: SEQ ID NO 66 (peptide)
peptide: [NMeI]VLSLD[dV]PIKLK([γGlu-C16 diacid])KILLEQEKQKKQREQAETNVQILAQV-NH2
modifications: N-terminus assumed
SMILES: CC[C@H](C)[C@H](NC)C(=O)N[C@H](C(=O)N[C@@H](CC(C)C)C(=O)N[C@@H](CO)C(=O)N[C@@H](CC(C)C)C(=O)N[C@@H](CC(=O)O)C(=O)N[C@@H](C(=O)N1CCC[C@H]1C(=O)N[C@H](C(=O)N[C@@H](CCCCN)C(=O)N[C@@H](CC(C)C)C(=O)N[C@@H](CCCCNC(=O)CC[C@H](NC(=O)CCCCCCCCCCCCCCC(=O)O)C(=O)O)C(=O)N[C@@H](CCCCN)C(=O)N[C@H](C(=O)N[C@@H](CC(C)C)C(=O)N[C@@H](CC(C)C)C(=O)N[C@@H](CCC(=O)O)C(=O)N[C@@H](CCC(N)=O)C(=O)N[C@@H](CCC(=O)O)C(=O)N[C@@H](CCCCN)C(=O)N[C@@H](CCC(N)=O)C(=O)N[C@@H](CCCCN)C(=O)N[C@@H](CCCCN)C(=O)N[C@@H](CCC(N)=O)C(=O)N[C@@H](CCCNC(=N)N)C(=O)N[C@@H](CCC(=O)O)C(=O)N[C@@H](CCC(N)=O)C(=O)N[C@@H](C)C(=O)N[C@@H](CCC(=O)O)C(=O)N[C@H](C(=O)N[C@@H](CC(N)=O)C(=O)N[C@H](C(=O)N[C@@H](CCC(N)=O)C(=O)N[C@H](C(=O)N[C@@H](CC(C)C)C(=O)N[C@@H](C)C(=O)N[C@@H](CCC(N)=O)C(=O)N[C@H](C(N)=O)C(C)C)[C@@H](C)CC)C(C)C)[C@@H](C)O)[C@@H](C)CC)[C@@H](C)CC)C(C)C)C(C)C
For the molecule B2, in the experiment with CRF1R receptor, the “Emax (% I)” value was determined as 4%. The same molecule returned an EC50 [nM] (cAMP) in experiment [1] of 1.05 nM.

B3: SEQ ID NO 80 (peptide)
peptide: Pentanoyl-VLSLD[dV]PIKLK([γGlu-C16 diacid])KILLEQEKQKKQREQAETN[Aib]QILAQV-NH2
SMILES: CCCCC(=O)N[C@H](C(=O)N[C@@H](CC(C)C)C(=O)N[C@@H](CO)C(=O)N[C@@H](CC(C)C)C(=O)N[C@@H](CC(=O)O)C(=O)N[C@@H](C(=O)N1CCC[C@H]1C(=O)N[C@H](C(=O)N[C@@H](CCCCN)C(=O)N[C@@H](CC(C)C)C(=O)N[C@@H](CCCCNC(=O)CC[C@H](NC(=O)CCCCCCCCCCCCCCC(=O)O)C(=O)O)C(=O)N[C@@H](CCCCN)C(=O)N[C@H](C(=O)N[C@@H](CC(C)C)C(=O)N[C@@H](CC(C)C)C(=O)N[C@@H](CCC(=O)O)C(=O)N[C@@H](CCC(N)=O)C(=O)N[C@@H](CCC(=O)O)C(=O)N[C@@H](CCCCN)C(=O)N[C@@H](CCC(N)=O)C(=O)N[C@@H](CCCCN)C(=O)N[C@@H](CCCCN)C(=O)N[C@@H](CCC(N)=O)C(=O)N[C@@H](CCCNC(=N)N)C(=O)N[C@@H](CCC(=O)O)C(=O)N[C@@H](CCC(N)=O)C(=O)N[C@@H](C)C(=O)N[C@@H](CCC(=O)O)C(=O)N[C@H](C(=O)N[C@@H](CC(N)=O)C(=O)NC(C)(C)C(=O)N[C@@H](CCC(N)=O)C(=O)N[C@H](C(=O)N[C@@H](CC(C)C)C(=O)N[C@@H](C)C(=O)N[C@@H](CCC(N)=O)C(=O)N[C@H](C(N)=O)C(C)C)[C@@H](C)CC)[C@@H](C)O)[C@@H](C)CC)[C@@H](C)CC)C(C)C)C(C)C
As for B3, the “Emax (% I)” value with CRF1R receptor stood at 10%. This molecule came in with an EC50 [nM] (cAMP) in experiment [1] of 0.35 nM.

B4: SEQ ID NO 18 (peptide)
peptide: Ac-IVLSLD[dV]PIKLK([γGlu-C16 diacid])Q[Aib]LLKQERQKKQREQAEKNVQILEQV-NH2
SMILES: CC[C@H](C)[C@H](NC(C)=O)C(=O)N[C@H](C(=O)N[C@@H](CC(C)C)C(=O)N[C@@H](CO)C(=O)N[C@@H](CC(C)C)C(=O)N[C@@H](CC(=O)O)C(=O)N[C@@H](C(=O)N1CCC[C@H]1C(=O)N[C@H](C(=O)N[C@@H](CCCCN)C(=O)N[C@@H](CC(C)C)C(=O)N[C@@H](CCCCNC(=O)CC[C@H](NC(=O)CCCCCCCCCCCCCCC(=O)O)C(=O)O)C(=O)N[C@@H](CCC(N)=O)C(=O)NC(C)(C)C(=O)N[C@@H](CC(C)C)C(=O)N[C@@H](CC(C)C)C(=O)N[C@@H](CCCCN)C(=O)N[C@@H](CCC(N)=O)C(=O)N[C@@H](CCC(=O)O)C(=O)N[C@@H](CCCNC(=N)N)C(=O)N[C@@H](CCC(N)=O)C(=O)N[C@@H](CCCCN)C(=O)N[C@@H](CCCCN)C(=O)N[C@@H](CCC(N)=O)C(=O)N[C@@H](CCCNC(=N)N)C(=O)N[C@@H](CCC(=O)O)C(=O)N[C@@H](CCC(N)=O)C(=O)N[C@@H](C)C(=O)N[C@@H](CCC(=O)O)C(=O)N[C@@H](CCCCN)C(=O)N[C@@H](CC(N)=O)C(=O)N[C@H](C(=O)N[C@@H](CCC(N)=O)C(=O)N[C@H](C(=O)N[C@@H](CC(C)C)C(=O)N[C@@H](CCC(=O)O)C(=O)N[C@@H](CCC(N)=O)C(=O)N[C@H](C(N)=O)C(C)C)[C@@H](C)CC)C(C)C)[C@@H](C)CC)C(C)C)C(C)C
On to B4, for which the “Emax (% I)” value with CRF1R receptor was 10%. The EC50 [nM] (cAMP) in experiment [1] was 3.55 nM.

B5: SEQ ID NO 121 (peptide)
peptide: Pentanoyl-VLSLD[dV]PIKLK([AEEA-AEEA-γGlu-C18 diacid])KILLEQEKQKKQREQAETNVQILAQV-NH2
SMILES: CCCCC(=O)N[C@H](C(=O)N[C@@H](CC(C)C)C(=O)N[C@@H](CO)C(=O)N[C@@H](CC(C)C)C(=O)N[C@@H](CC(=O)O)C(=O)N[C@@H](C(=O)N1CCC[C@H]1C(=O)N[C@H](C(=O)N[C@@H](CCCCN)C(=O)N[C@@H](CC(C)C)C(=O)N[C@@H](CCCCNC(=O)COCCOCCNC(=O)COCCOCCNC(=O)CC[C@H](NC(=O)CCCCCCCCCCCCCCCCC(=O)O)C(=O)O)C(=O)N[C@@H](CCCCN)C(=O)N[C@H](C(=O)N[C@@H](CC(C)C)C(=O)N[C@@H](CC(C)C)C(=O)N[C@@H](CCC(=O)O)C(=O)N[C@@H](CCC(N)=O)C(=O)N[C@@H](CCC(=O)O)C(=O)N[C@@H](CCCCN)C(=O)N[C@@H](CCC(N)=O)C(=O)N[C@@H](CCCCN)C(=O)N[C@@H](CCCCN)C(=O)N[C@@H](CCC(N)=O)C(=O)N[C@@H](CCCNC(=N)N)C(=O)N[C@@H](CCC(=O)O)C(=O)N[C@@H](CCC(N)=O)C(=O)N[C@@H](C)C(=O)N[C@@H](CCC(=O)O)C(=O)N[C@H](C(=O)N[C@@H](CC(N)=O)C(=O)N[C@H](C(=O)N[C@@H](CCC(N)=O)C(=O)N[C@H](C(=O)N[C@@H](CC(C)C)C(=O)N[C@@H](C)C(=O)N[C@@H](CCC(N)=O)C(=O)N[C@H](C(N)=O)C(C)C)[C@@H](C)CC)C(C)C)[C@@H](C)O)[C@@H](C)CC)[C@@H](C)CC)C(C)C)C(C)C
With B5, in the experiment with CRF1R receptor, the “Emax (% I)” value stood at 6%. This molecule yielded an EC50 [nM] (cAMP) in experiment [1] of 5.76 nM.

B6: SEQ ID NO 81 (peptide)
peptide: Pentanoyl-VLSLD[dV]PIKLK([γGlu-C16 diacid])KILLEQEKQKKQREQAETNVQILAQV-NH2
SMILES: CCCCC(=O)N[C@H](C(=O)N[C@@H](CC(C)C)C(=O)N[C@@H](CO)C(=O)N[C@@H](CC(C)C)C(=O)N[C@@H](CC(=O)O)C(=O)N[C@@H](C(=O)N1CCC[C@H]1C(=O)N[C@H](C(=O)N[C@@H](CCCCN)C(=O)N[C@@H](CC(C)C)C(=O)N[C@@H](CCCCNC(=O)CC[C@H](NC(=O)CCCCCCCCCCCCCCC(=O)O)C(=O)O)C(=O)N[C@@H](CCCCN)C(=O)N[C@H](C(=O)N[C@@H](CC(C)C)C(=O)N[C@@H](CC(C)C)C(=O)N[C@@H](CCC(=O)O)C(=O)N[C@@H](CCC(N)=O)C(=O)N[C@@H](CCC(=O)O)C(=O)N[C@@H](CCCCN)C(=O)N[C@@H](CCC(N)=O)C(=O)N[C@@H](CCCCN)C(=O)N[C@@H](CCCCN)C(=O)N[C@@H](CCC(N)=O)C(=O)N[C@@H](CCCNC(=N)N)C(=O)N[C@@H](CCC(=O)O)C(=O)N[C@@H](CCC(N)=O)C(=O)N[C@@H](C)C(=O)N[C@@H](CCC(=O)O)C(=O)N[C@H](C(=O)N[C@@H](CC(N)=O)C(=O)N[C@H](C(=O)N[C@@H](CCC(N)=O)C(=O)N[C@H](C(=O)N[C@@H](CC(C)C)C(=O)N[C@@H](C)C(=O)N[C@@H](CCC(N)=O)C(=O)N[C@H](C(N)=O)C(C)C)[C@@H](C)CC)C(C)C)[C@@H](C)O)[C@@H](C)CC)[C@@H](C)CC)C(C)C)C(C)C
Take B6: the “Emax (% I)” value with CRF1R receptor was 6%. Moreover, the EC50 [nM] (cAMP) in experiment [1] amounted to 0.8 nM.
